The text below walks through data of publication PMC9924070 (Science Translational Medicine, 2021).

For assay [1], the target named is mouse IgG1 Fc-fused SARS-CoV-2 RBD (SARS-CoV-2, UniProt P0DTC2). As to the kind of experiment: BLI. As to conditions: both partners purified.
The target in assay [2] is monomeric human Fc-fused SARS-CoV-2_RBD-SD1 (SARS-CoV-2, Wuhan-Hu-1, UniProt P0DTC2). As to the kind of experiment: BLI. As to conditions: both partners purified.
Assay [3] deals with SARS-CoV-1 spike (SARS-CoV-1, reference entry; strain not …, UniProt P59594). As to the kind of experiment: cell-based or functional assay.

B1: humVHH_S56A (VHH)
VHH: EVQLVESGGGLVQPGGSLRLSCAASGRTFSEYAMGWFRQAPGKEREFVATISWSGGATYYTDSVKGRFTISRDNAKNTVYLQMNSLRPEDTAVYYCAAAGLGTVVSEWDYDYDYWGQGTLVTVSS
notes: also called humVHH72_S56A; VHH72_h1_S56A
The term koff denotes the rate constant with which the complex falls apart. A low value points to a long-lived complex. Take B1: in assay [1], the koff was 0.019 s⁻¹.

B2: humVHH_S56A (VHH)
VHH: EVQLVESGGGLVQPGGSLRLSCAASGRTFSEYAMGWFRQAPGKEREFVATISWSGGATYYTDSVKGRFTISRDNAKNTVYLQMNSLRPEDTAVYYCAAAGLGTVVSEWDYDYDYWGQGTLVTVSS
notes: also called monomeric humanized VHH72 with the S56A substitution
Regarding B2, in assay [2], the “fold increase in affinity over humVHH” value was approximately 7 fold. Moreover, the “neutralization of VSV SARS-CoV-1 spike pseudotype virus, potency against humVHH” value in assay [3] was found to be 10 fold.

B3: humVHH (VHH)
VHH: EVQLVESGGGLVQPGGSLRLSCAASGRTFSEYAMGWFRQAPGKEREFVATISWSGGSTYYTDSVKGRFTISRDNAKNTVYLQMNSLRPEDTAVYYCAAAGLGTVVSEWDYDYDYWGQGTLVTVSS
notes: also called humanized VHH72; VHH72_h1
In the case of B3, the koff in assay [1] came to 0.075 s⁻¹.
